From article PMC7316729, “The cryo-EM structure of the bacterial flagellum cap complex suggests a molecular mechanism for filament elongation” (Nature Communications, 2020)
Several values for one entry are separate records, joined by “and”; a condition that tells them apart may be missing. Equal entries are not always repeated.

Legend:
[1] = biological target: T1, FliD from Pseudomonas aeruginosa, full length (P. aeruginosa), Q9K3C5; assay: negative-stain TEM with 2D classification; purified protein on carbon-coated copper grids, 0.75% uranyl formate; ~3500 particles for FliDsm and 2700 for FliDpa, 2D class averages; details: remark: other sources report otherwise
T1 chain: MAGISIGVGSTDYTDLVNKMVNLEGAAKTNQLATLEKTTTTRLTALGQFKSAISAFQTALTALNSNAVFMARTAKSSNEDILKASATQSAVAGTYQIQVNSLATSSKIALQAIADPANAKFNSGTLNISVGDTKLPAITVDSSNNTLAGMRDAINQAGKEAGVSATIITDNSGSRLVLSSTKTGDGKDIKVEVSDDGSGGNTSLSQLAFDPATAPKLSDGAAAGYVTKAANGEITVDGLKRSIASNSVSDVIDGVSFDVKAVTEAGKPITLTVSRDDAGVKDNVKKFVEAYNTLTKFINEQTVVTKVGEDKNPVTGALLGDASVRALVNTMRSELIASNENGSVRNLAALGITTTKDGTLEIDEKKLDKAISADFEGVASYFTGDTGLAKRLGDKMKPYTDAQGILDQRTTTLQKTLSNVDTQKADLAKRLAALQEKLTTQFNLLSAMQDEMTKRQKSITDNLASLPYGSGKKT

[2] = biological target: the molecule itself; assay: cryo-EM structure; purified FliDcj at 1 mg/ml vitrified on holey carbon grids; protein in 50 mM HEPES 150 mM NaCl pH 7; D5 symmetry (full map, 4.7 Å), C5 (head map, 5.0 Å)
[3] = biological target: the molecule itself; assay: negative-stain TEM with 2D classification; purified protein on carbon-coated copper grids, 0.75% uranyl formate; ~3500 particles for FliDsm and 2700 for FliDpa, 2D class averages

B1: FliD from Pseudomonas aeruginosa, full length, Q9K3C5 1-474 (natural protein)
chain: T1 chain
For B1, the percent of particles that are pentamers [1] was 25.5% and the stoichiometry N [1] was 5.

B2: FliD from Campylobacter jejuni, full length (flagellum cap protein) (natural protein)
chain: MAFGSLSSLGFGSGVLTQDTIDKLKEAEQKARIDPYTKKIEENTTKQKDLTEIKTKLLSFQTAVSSLADATVFAKRKVVGSISDNPPASLTVNSGVALQSMNINVTQLAQKDVYQSKGLANDGGFVNAQLNGTADLTFFSNGKEYTVTVDKNTTYRDLADKINEASGGEIVAKIVNTGEKGTPYRLTLTSKETGEDSAISFYAGKKDSNGKYQKDINAEKIFDDLGWGLDVSASIDPDKDKKGYGIKDASLHIQTAQNAEFTLDGIKMFRSSNTVTDLGVGMTLTLNKTGEINFDVQQDFEGVTKAMQDLVDAYNDLVTNLNAATDYNSETGTKGTLQGISEVNSIRSSILADLFDSQVVDGTTEDANGNKVNTKVMLSMQDFGLSLNDAGTLSFDSSKFEQKVKEDPDSTESFFSNITKYEDINHTGEVIKTGSLSKYLNSNGGNTNGLEFKPGDFTIVFNNQTYDLSKNSDGTNFKLTGKTEEELLQNLANHINSKGIEGLKVKVESYNQNNVTGFRLNFSGDGSSDFSIKGDANILKELGLSDVNITSKPIEGKGIFSKLKATLQEMTGKDGSITKYDESLTNDIKSLNTSKDSTQAMIDTRYDTMANQWLQYESILNKLNQQLNTVTNMINAANNSNN
notes: FliD (flagellar cap protein, HAP2) of Campylobacter jejuni; gene codon-optimised for E. coli, synthesised and sub-cloned into pET28a; printed numbering runs to residue 643 (C-terminus 577-643); The D4 domain was not built in the model 6SIH; also called FliDcj; HAP2; source: E. coli BL21-CodonPlus(DE3)-RIL, purified (Ni-NTA, Superdex 200 SEC)
B2 was tested, and the “stoichiometry N” value [2] was 10 and 5.

B3: FliD from Serratia marcescens, full length (natural protein)
chain: MATISSLGLGSGLDLNGLLDKLTKAEQQRLTPYTTKQSSYNAQLTGYGTLKGALEKFDNLSKEMAKEDFFKATTATEHDAFKITTNAKAVPGNYVVEVNKLAQAQTLTTQAKVSDQGAKLGAEGVTDRSLTITAGNPPKETKIPLSDDQTSLVELRDAINGAKAGVTASIMRVGDNDYQLAVSSSTTGENNKISLQVDNDDQLGDILNYNATRGTGTAMKQTVAPQDAELTVNGTAIKRSTNSISDALQGVTIDLKTKTKTDEPQHLVISTNTAGTTDKIKEWVDSYNSLLDTFNALSKFTPVKTGEAPNPTNGPLLGDNTLRGIQSSIKSALSAAQDNPELKGLGNLGISTNTKTGKLEIDSAKLKKAMDEKPDQVSNFFVGNGKDTGMATEIHNEIQSYIKSGGIIENSTKSINTNLDRLNSQITTVTASIQNTIDRYKQQFVQLDTMMSKMNGTSNYLAQQFK
notes: FliD (flagellar cap protein) of Serratia marcescens; gene codon-optimised for E. coli, synthesised and sub-cloned into pET28a; The head domain of this protein is PDB 5XLJ (cited); also called FliDsm; source: E. coli BL21-CodonPlus(DE3)-RIL, purified (Ni-NTA, Superdex 200 SEC)
In the case of B3, the “stoichiometry N” value [3] is reported as 5.
